Molecular target: the molecule itself
Experiment: crystal structure; DNMT3C MTase domain-hDNMT3L C-terminal domain covalently bound to a 25-mer ZpG/CpG DNA, with SAH; 3.2 Å; crystals grown at 4 °C

B1: mouse DNMT3C MTase domain (residues 456–740) (domain or fragment, UniProt P0DOY1 456-740, looked up)
chain: AAKRRPIRVLSLFDGIATGYLVLKELGIKVEKYIASEVCAESIAVGTVKHEGQIKYVDDIRNITKEHIDEWGPFDLVIGGSPCNDLSCVNPVRKGLFEGTGRLFFEFYRLLNYSCPEEEDDRPFFWMFENVVAMEVGDKRDISRFLECNPVMIDAIKVSAAHRARYFWGNLPGMNRPVMASKNDKLELQDCLEFSRTAKLKKVQTITTKSNSIRQGKNQLFPVVMNGKDDVLWCTELERIFGFPEHYTDVSNMGRGARQKLLGRSWSVPVIRHLFAPLKDHFACE
notes: DNA methyltransferase DNMT3C, mouse, MTase domain, residues 456-740; synthetic DNA fragment; The His6-SUMO tag was still on the chain in the Ni-NTA co-purification step and was removed by ULP1 afterwards; also called DNMT3C methyltransferase domain; WT DNMT3C; source: E. coli BL21 (DE3) RIL, co-expressed with DNMT3L, purified (Ni-NTA, Heparin, SEC); not shown: His6-SUMO, N-terminal, cleaved
**Q.** Does B1 bind?
**A.** Result: binds

From article PMC11401227, “The structure of DNA methyltransferase DNMT3C reveals an activity-tuning mechanism for DNA methylation” (The Journal of Biological Chemistry, 2024)
